Drawing on publication PMC4150770, this text covers k1 (dissociation rate constant, fast phase, open state) and k2 (dissociation rate constant, slow phase, closed state) for 1 substance.

Experiment [1] deals with 43S·mRNA preinitiation complex assembled with eIF5-G62S (yeast) (UniProt P32911). The experiment can be described thus: fluorescence polarisation; dissociation kinetics by fluorescence anisotropy, 43S·mRNA(UUG) complexes: 15 nM eIF1A-Fl, 1 μM eIF1, 1 μM eIF5 variant, 120 nM 40S, 10 μM mRNA(UUG), 300 nM eIF2, 150 nM Met-tRNAi, 1 mM GDPNP·Mg2+; chase with 15 μM unlabeled eIF1A; 30 mM HEPES pH 7.4, 100 mM potassium acetate, 3 mM Mg(OAc)2, 2 mM DTT; double exponential fit (k1 fast phase, open state; k2 slow phase, closed state). A general note: In fluorescence polarisation assays a small probe gives low polarisation when free and higher when bound to something large.

The target in experiment [2] is 43S·mRNA preinitiation complex assembled with eIF5-G31R,G62S (yeast) (UniProt P32911). The description is as above.
In experiment [3] the target is 43S·mRNA preinitiation complex assembled with eIF5-M18V (yeast) (UniProt P32911). The description is as above.
The target of experiment [4] is 43S·mRNA preinitiation complex assembled with eIF5-G31R (yeast) (UniProt P32911). The experiment is described as above.
In experiment [5] the target is 43S·mRNA preinitiation complex assembled with WT eIF5 (40S subunits, eIF1, eIF5, eIF2·GDPNP·Met-tRNAi ternary complex, model mRNA) (yeast) (UniProt P32911). The experiment is described as above.
Experiment [6] concerns the target 43S·mRNA preinitiation complex assembled with eIF5-G31R,M18V (yeast) (UniProt P32911). The experiment is described as above.
In experiment [7] the target is 43S·mRNA preinitiation complex assembled with eIF5-G62S (yeast) (UniProt P32911). The experiment in a line: fluorescence polarisation; dissociation kinetics by fluorescence anisotropy, 43S·mRNA(AUG) complexes: 15 nM eIF1A-Fl, 1 μM eIF1, 1 μM eIF5 variant, 120 nM 40S, 10 μM mRNA(AUG), 300 nM eIF2, 150 nM Met-tRNAi, 1 mM GDPNP·Mg2+; chase with 15 μM unlabeled eIF1A; 30 mM HEPES pH 7.4, 100 mM potassium acetate, 3 mM Mg(OAc)2, 2 mM DTT; double exponential fit (k1 fast phase, open state; k2 slow phase, closed state).

In experiment [8] the target is 43S·mRNA preinitiation complex assembled with eIF5-G31R,G62S (yeast) (UniProt P32911). The description is as above.
The target of experiment [9] is 43S·mRNA preinitiation complex assembled with eIF5-M18V (yeast) (UniProt P32911). The experiment is described as above.
In experiment [10] the target is 43S·mRNA preinitiation complex assembled with eIF5-G31R (yeast) (UniProt P32911). The experiment is described as above.
Experiment [11] addresses 43S·mRNA preinitiation complex assembled with WT eIF5 (40S subunits, eIF1, eIF5, eIF2·GDPNP·Met-tRNAi ternary complex, model mRNA) (yeast) (UniProt P32911). The experiment is described as above.
Experiment [12] concerns the target 43S·mRNA preinitiation complex assembled with eIF5-G31R,M18V (yeast) (UniProt P32911). Described as above.

For “eIF1A labeled at its C-terminus with fluorescein (from UniProt P38912 1-153) (natural protein)”, the k1 (dissociation rate constant, fast phase, open state) was 0.025 s⁻¹ in experiment [1]; 0.026 s⁻¹ in [2]; 0.011 s⁻¹ in experiment [3]; 0.008 s⁻¹ in experiment [4]; 0.011 s⁻¹ in experiment [5]; 0.018 s⁻¹ in experiment [6]. Further, the k1 (dissociation rate constant, fast phase, open state) in [7] amounted to 0.018 s⁻¹; in experiment [8] it was 0.018 s⁻¹; in experiment [9] it was 0.003 s⁻¹; in [10], 0.016 s⁻¹; in [11], 0.007 s⁻¹; in experiment [12] it was 0.025 s⁻¹. Also, the k2 (dissociation rate constant, slow phase, closed state) in experiment [1] is 0.002 s⁻¹; in experiment [2], 0.004 s⁻¹; in [3], 0.0012 s⁻¹; in [4] it was 0.0005 s⁻¹; in experiment [5], 0.0011 s⁻¹; in experiment [6] it was 0.0003 s⁻¹. The k2 (dissociation rate constant, slow phase, closed state) was determined as 0.003 s⁻¹ in experiment [7]; 0.003 s⁻¹ in experiment [8]; 0.0003 s⁻¹ in experiment [9]; 0.005 s⁻¹ in experiment [10]; 0.0004 s⁻¹ in experiment [11]; 0.002 s⁻¹ in experiment [12].
